# Results: the supplement of paper PMC7877785
# ± gives the uncertainty stated by the source.
# Test: self-splicing fitness, log relative to wild type (ln ratio); higher = more splicing; Tetrahymena group I intron in knt gene, E. coli kanamycin selection, DiMSum; sequences stand for … in CUCUCU…GGAGGGAAAAGUUAUCAGGCAUGCACCUGGUAGCUAGUCUUUAAACCAAUAGAUUGCAUCGGUUUAAAAGGCAAGACCGUCAAAUUGCGGGAAAGGGGUCAACAGCCGUUCAGUACCAAGUCUCAGGGGAAACUUUGAGAUGGCCUUGCAAAGGGUAUGGUAAUAAGCUGACGGACAUGGUCCUAACCACGCAGCCAAGUCCUAAGUCAACAGAUCUUCUGUUGAUAUGGAUGCAGUUCACAGACUAAAUGUCGGUCGGGGAAGAUGUAUUCUUCUCAUAAGAUAUAGUCGGACCUCUCCUUAAUGGGAGCUAGCGGAUGAAGUGAUGCAACACUGGAGCCGCUGGGAACUAAUUUGUAUGCGAAAGUAUAUUGAUUAGUUUUGGAGUACUCGUGGUCG
# Procedure, shortened: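 Fitness was computed with DiMSum as the error-weighted combination of replicate fold changes, kanamycin versus none, each normalised to wild type. The library randomised all eight intron nucleotides of the P1ex region, with the intron placed in the knt kanamycin-resistance gene on pET-22b(+) in E. coli BL21(DE3). Six replicate transformations were grown overnight at 37°C or 30°C on LB agar with or without 25 μg/mL kanamycin, plus 100 μg/mL carbenicillin, 50 μM IPTG and 0.2% rhamnose. Pooled colonies were amplicon-sequenced on an Illumina HiSeq 2500.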
Sequence,self-splicing fitness (ln) (30 °C),self-splicing fitness (ln) (37 °C)
CAUGAGCAAUAUUACGAAUA,-1.59 ± 0.18,-2.72 ± 0.4
AGACAGCAAUAUUACGGCGC,-0.893 ± 0.092,-0.134 ± 0.12
GUCCAGCAAUAUUACGUGGU,-1.61 ± 0.059,-1.03 ± 0.064
